B1: FAM189A2 (parent)
chain: VAAALRYLQIFATRRSCIDESQIS
B2: PTPN9 (parent)
chain: ILFSLPPALDWDSVHVPGPHAMTI

Variants of: B1
Assay: protein stability index of a GFP-peptide fusion (GPS, HEK-293T) (PSI 1-6); higher = more stable
Details: c terminus: a fixed tail appended
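Further: lentivirally expressed fusions sorted by FACS into six bins by GFP to DsRed ratio, PSI derived from sequencing read proportions per bin multiplied by bin number.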

| Variant | protein stability index |
| --- | --- |
| I23Y | 3.27 |
| I23L | 1.61 |
| I23E | 2.76 |
| I23S | 1.84 |
| I23M | 1.35 |
| I23Q | 1.88 |
| I23W | 1.87 |
| I23R | 1.91 |
| I23N | 3.01 |
| I23K | 1.94 |
| I23G | 1.52 |
| I23T | 2.18 |
| I23F | 2.9 |
| I23H | 1.69 |
| I23P | 2.46 |
| S24I | 2.9 |
| S24E | 1.52 |
| S24M | 2.07 |
| S24C | 3.79 |
| S24A | 2.76 |
| S24Q | 2.04 |
| S24F | 3.22 |
| S24R | 3.04 |
| S24G | 2.54 |
| S24H | 2.29 |
| S24T | 2.85 |
| S24P | 4.3 |
| S24K | 1.16 |
| S24Y | 1.78 |

Variants of: B2
Assay: as above
Details: c terminus: a fixed tail appended

| Variant | protein stability index |
| --- | --- |
| H20Y | 3.11 |
| H20I | 2.93 |
| H20K | 2.76 |
| H20P | 1.82 |
| H20N | 2.59 |
| H20L | 2.79 |
| H20E | 1.59 |
| H20A | 2.01 |
| H20R | 2.12 |
| H20Q | 2.31 |
| H20T | 2.16 |
| H20D | 2.29 |
| H20F | 3.16 |
| I24R | 1.71 |
| I24T | 1.97 |
| I24D | 1.83 |
| I24Y | 1.73 |
| I24A | 1.55 |
| I24M | 2.69 |
| I24K | 2.06 |
| I24Q | 2.71 |
| I24L | 1.99 |
| I24G | 2.29 |
| I24P | 1.85 |
| I24F | 3.71 |
| I24V | 2.31 |

| Variant | protein stability index |
| --- | --- |
| I24H | 1.63 |
| I24S | 1.57 |
| D10W | 1.9 |
| D10H | 3.79 |
| D10G | 2.28 |
| D10N | 1.73 |
| D10M | 3.42 |
| D10L | 2.22 |
| D10A | 2.86 |
| D10V | 2.05 |
| D10K | 3.67 |
| D10F | 2.68 |
| A8K | 2.87 |
| A8T | 3.32 |
| A8I | 1.81 |
| A8W | 2.68 |
| A8Q | 3.82 |
| A8H | 2.5 |
| A8C | 3.81 |
| A8M | 4.44 |
| A8S | 3.4 |
| A8G | 2.36 |
| A8R | 2.43 |
| V16E | 1.38 |
| V16I | 3.19 |
| V16C | 3.24 |

| Variant | protein stability index |
| --- | --- |
| V16A | 1.93 |
| V16D | 2.27 |
| V16S | 3.71 |
| V16F | 2.42 |
| V16K | 2.54 |
| V16N | 1.74 |
| V16Q | 1.81 |
| V16G | 1.99 |
| V16M | 3.21 |
| V16W | 2.95 |
| V16R | 2.68 |
| V16T | 3.33 |
| P7E | 2.43 |
| P7N | 2.98 |
| P7C | 2.03 |
| P7H | 4.13 |
| P7A | 1.87 |
| P7V | 4.23 |
| P7D | 1.01 |
| P7I | 2.49 |
| P7M | 1.68 |
| M22S | 1.82 |
| M22Q | 2.04 |
| M22I | 2.93 |
| M22D | 1.91 |
| M22R | 1.86 |

| Variant | protein stability index |
| --- | --- |
| M22W | 3.35 |
| M22G | 1.67 |
| M22N | 1.39 |
| M22A | 2.35 |
| M22F | 1.73 |
| M22K | 1.39 |
| M22V | 2.64 |
| M22T | 1.75 |
| M22L | 2.77 |
| F3M | 1.21 |
| F3N | 1.83 |
| F3C | 2.62 |
| F3I | 2.7 |
| F3A | 1.1 |
| F3P | 2.27 |
| F3W | 1.61 |
| F3Y | 2.21 |
| F3S | 1.49 |
| F3T | 2.38 |
| F3H | 2.03 |
| F3E | 1.87 |
| F3K | 1.95 |
| F3D | 1.77 |
| W11F | 3.1 |
| W11V | 2.38 |
| W11L | 2.72 |

| Variant | protein stability index |
| --- | --- |
| W11I | 3.5 |
| W11P | 2.41 |
| W11D | 1.75 |
| W11S | 1.9 |
| W11C | 3.67 |
| W11E | 1.57 |
| W11R | 2.11 |
| W11M | 2.73 |
| W11H | 2 |
| W11A | 3.48 |
| W11Y | 3.05 |
| W11N | 2.26 |
| I1V | 3.38 |
| I1S | 1.99 |
| I1Q | 1.7 |
| I1A | 2.03 |
| I1T | 2.28 |
| I1M | 1.7 |
| I1E | 1.71 |
| I1G | 2.6 |
| I1N | 1.8 |
| I1P | 1.93 |
| I1F | 1.76 |
| I1K | 2.24 |
| P17D | 2.21 |
| P17W | 4.48 |

| Variant | protein stability index |
| --- | --- |
| P17T | 2.02 |
| P17L | 2.79 |
| P17M | 3.11 |
| P17I | 2.67 |
| P17H | 1.42 |
| P17A | 2.78 |
| P17Q | 2.94 |
| P17G | 1.94 |
| P17K | 2.49 |
| P17R | 2.87 |
| P17C | 1.49 |
| P17E | 2.47 |
| H15Q | 1.81 |
| H15S | 1.85 |
| H15C | 2.36 |
| H15K | 2.48 |
| H15A | 3.31 |
| H15L | 4.13 |
| H15P | 3.2 |
| H15E | 2 |
| H15T | 2.94 |
| H15F | 2.99 |
| H15R | 1.44 |
| H15V | 3.57 |
| H15I | 2.88 |
| H15G | 2.83 |

| Variant | protein stability index |
| --- | --- |
| V14Q | 2.57 |
| V14Y | 2.26 |
| V14E | 1.95 |
| V14G | 2.1 |
| V14H | 2.43 |
| V14L | 3.32 |
| V14M | 3.43 |
| V14K | 1.66 |
| V14R | 2.75 |
| V14I | 2.09 |
| V14C | 2.02 |
| V14S | 2.17 |
| V14T | 2.38 |
| V14D | 1.5 |
| V14F | 4.29 |
| G18L | 4.77 |
| G18D | 1.85 |
| G18M | 2.48 |
| G18W | 3.41 |
| G18C | 1.85 |
| G18Q | 3.62 |
| G18A | 3.84 |
| G18E | 2.12 |
| G18I | 3.29 |
| G18S | 2.4 |
| G18K | 1.61 |

| Variant | protein stability index |
| --- | --- |
| G18H | 2.69 |
| G18N | 2.76 |
| G18V | 2.36 |
| G18R | 2.19 |
| S13A | 1.88 |
| S13N | 1.81 |
| S13K | 2.36 |
| S13Q | 2.06 |
| S13R | 3.77 |
| S13P | 2.4 |
| S13G | 2.02 |
| S13V | 2.03 |
| S13I | 3.25 |
| S13M | 2.1 |
| S13D | 2.79 |
| P6K | 1.97 |
| P6Q | 2.46 |
| P6W | 2.15 |
| P6Y | 2.91 |
| P6L | 4.02 |
| P6M | 1.89 |
| S4K | 1.98 |
| S4T | 2.17 |
| S4D | 2.38 |
| S4P | 2.01 |
| S4G | 2.46 |

| Variant | protein stability index |
| --- | --- |
| S4H | 3.16 |
| S4M | 3.28 |
| S4A | 2.31 |
| S4I | 3.06 |
| S4Q | 3.13 |
| S4W | 2.79 |
| S4F | 2.61 |
| S4V | 2.49 |
| S4R | 2.6 |
| D12I | 4.7 |
| D12A | 3.66 |
| D12T | 2.37 |
| D12G | 1.97 |
| D12C | 2.75 |
| D12H | 2.07 |
| D12W | 2.79 |
| D12P | 4.93 |
| D12Q | 1.88 |
| D12M | 2.88 |
| L2V | 2.54 |
| L2I | 3.33 |
| L2N | 2.6 |
| L2D | 1.26 |
| L2A | 2.12 |
| L2E | 2.29 |
| L2M | 3.37 |

| Variant | protein stability index |
| --- | --- |
| L2F | 2.06 |
| L2W | 2.54 |
| L2C | 3.86 |
| L2P | 1.93 |
| L2R | 1.7 |
| L2K | 2.73 |
| L2Q | 2.47 |
| A21K | 3.13 |
| A21T | 2.35 |
| A21N | 1.75 |
| A21W | 1.23 |
| A21H | 2.88 |
| A21M | 2.59 |
| A21Y | 3.24 |
| A21Q | 2.63 |
| A21D | 2.71 |
| A21G | 2.96 |
| A21R | 1.86 |
| A21V | 4.21 |
| A21S | 3.61 |
| A21P | 2.84 |
| L9A | 2.29 |
| L9Y | 4.25 |
| L9K | 2.63 |
| L9E | 1.93 |
| L9D | 1.83 |

| Variant | protein stability index |
| --- | --- |
| L9C | 2.52 |
| L9R | 2.07 |
| L9M | 2.52 |
| L9W | 4.62 |
| L9G | 3.71 |
| L9F | 2.33 |
| L9I | 1.96 |
| T23F | 2.25 |
| T23A | 1.49 |
| T23H | 1.88 |
| T23M | 4.43 |
| T23Y | 2.69 |
| T23E | 2.33 |
| T23V | 4.05 |
| T23R | 3.03 |
| T23Q | 2.73 |
| T23N | 3.27 |
| T23W | 2.7 |
| T23S | 2.4 |
| T23P | 1.2 |
| T23C | 3.21 |
| T23K | 2.87 |
| L5Q | 1.47 |
| L5N | 1.32 |
| L5F | 4.35 |
| L5D | 2.43 |

| Variant | protein stability index |
| --- | --- |
| L5V | 3.76 |
| L5R | 2.93 |
| L5I | 1.33 |
| L5M | 2.3 |
| L5H | 1.76 |
| P19H | 2.46 |
| P19L | 2.44 |
| P19T | 1.89 |
| P19N | 2.89 |
| P19C | 2.95 |
| P19K | 2.02 |
| P19G | 2.97 |
| P19D | 2.1 |
| P19M | 2.77 |
| P19A | 2.77 |
| P19W | 2.19 |
| P19S | 2.48 |
| P19R | 2.65 |
| P19E | 2.35 |

Source: the supplement of paper PMC10567573
